The values below come from patent US20070092942.

Residue numbers refer to the chain shown, from its start. Names and notes keep the numbering of the source.

Data set [1] concerns the target Ub C-terminal 7-amido-4-methylcoumarin, P0CG47.
Data set [2] deals with isopeptide-linked SUMO-1-peptide conjugate, P63165.
Data set [3] concerns the target isopeptide-linked Ub-peptide conjugate, P0CG47.
In data set [4] the target is isopeptide-linked Nedd8-peptide conjugate, Q15843.
For data set [5], the target named is His-tagged Lys^48-linked polyubiquitin, P0CG47.
Data set [6] deals with His-tagged Lys^63-linked polyubiquitin, P0CG47.
Data set [7] has as its target isopeptide-linked ISG15-peptide conjugate, P05161.

Sequence of Ub C-terminal 7-amido-4-methylcoumarin, P0CG47 (P0CG47 whole entry, looked up): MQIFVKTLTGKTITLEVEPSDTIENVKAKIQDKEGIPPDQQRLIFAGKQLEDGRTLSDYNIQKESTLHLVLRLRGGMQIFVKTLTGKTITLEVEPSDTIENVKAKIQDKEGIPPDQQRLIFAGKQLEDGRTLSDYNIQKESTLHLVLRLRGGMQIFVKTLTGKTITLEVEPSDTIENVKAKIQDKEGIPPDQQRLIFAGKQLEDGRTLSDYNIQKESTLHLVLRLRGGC
Sequence of isopeptide-linked SUMO-1-peptide conjugate, P63165 (P63165 1-97): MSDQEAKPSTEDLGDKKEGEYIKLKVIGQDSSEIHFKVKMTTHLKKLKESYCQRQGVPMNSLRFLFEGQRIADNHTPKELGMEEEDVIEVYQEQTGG
Sequence of isopeptide-linked Ub-peptide conjugate, P0CG47 (P0CG47 whole entry, looked up, tested part not stated): as the sequence (P0CG47 whole entry, looked up) above
Sequence of His-tagged Lys^48-linked polyubiquitin, P0CG47 (P0CG47 whole entry, looked up): as above
Sequence of His-tagged Lys^63-linked polyubiquitin, P0CG47 (P0CG47 whole entry, looked up): as above
Sequence of isopeptide-linked ISG15-peptide conjugate, P05161 (P05161 1-157): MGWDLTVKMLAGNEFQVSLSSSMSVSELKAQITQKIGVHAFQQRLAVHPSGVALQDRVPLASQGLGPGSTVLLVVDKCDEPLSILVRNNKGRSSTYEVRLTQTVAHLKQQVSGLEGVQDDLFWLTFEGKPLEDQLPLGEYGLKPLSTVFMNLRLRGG
Sequence of isopeptide-linked Nedd8-peptide conjugate, Q15843 (Q15843 whole entry, looked up, tested part not stated): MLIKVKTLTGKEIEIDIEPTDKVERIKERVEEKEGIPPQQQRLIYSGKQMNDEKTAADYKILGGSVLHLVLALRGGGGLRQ

B1: EBV205 (protein)
chain: MSNGDWGQSQRTRGTGPVRGIRTMDVNAPGGGSGGSALRILGTASCNQAHCKFGRFAGIQCVSNCVLYLVKSFLAGRPLTSRPELDEVLDEGARLDALMRQSGILKGHEMAQLTDVPSSVVLRGGGRVHIYRSAEIFGLVLFPAQIANSAVVQSLAEVLHGSYNGVAQFILYICDIYAGAIIIETDGSFYLFDPHCQKDAAPGTP
As to B1, the UbAMC hydrolysis entry in data set [1] was “efficiently hydrolyzed UbAMC”.

B2: EBV205 C61A (protein)
chain: B1 chain with C61A
Turning to B2, the UbAMC hydrolysis entry in data set [1] is recorded as “absent in the case of active site mutants”.

B3: His6UL36^USP (protein)
chain: MGGGNNTNPGGPVHKQAGSLASRAHMIAGTPPHSTMERGGDRDIVVTGARNQFAPDLEPGGSVSCMRSSLSFLSLIFDVGPRDVLSAEAIEGCLVEGGEWTRATAGPGPPRMCSIVELPNFLEYPGARGGLRCVFSRVYGEVGFFGEPAAGLLETQCPAHTFFAGPWALRPLSYTLLTIGPLGMGLFRDGDTAYLFDPHGLPEGTPAFIAKVRAGDMYPYLTYYTRDRPDVRWAGAMVFFVPSGPEPAAPADLTAAALHLYGASETYLQDEAFSERRVAITHPLRGEIAGLGEPCVGVGPREGVGGPGPHPPTAAQSPPPTRARRDDRASETSRGTAGPSAKPEAKRPNRAPDDVWAVALKGTPPTDPPSADPPSADPPSAIPPPPPSAPKTPAAEAAEEDDDDMRVLEMGVVPVGRHRARYSAGLPKRRRPTWTPPSSVEDLTSGEKTKRSAPPAKTKKKSTPKGKTPVGAAVPASVPEPVLASAPPDPAGPPVAEAGEDDGPTVPASSQALEALKTRRSPEPPGADLAQLF
Take B3: the “isopeptidase assay, loss of biotin signal” value in data set [2] is “Isopeptide-linked conjugates of Nedd8, ISG15 or SUMO-1 are not substrates for UL36^USP”; in data set [3], “results in cleavage of the Ub-peptide conjugate only”; in data set [4] it was “Isopeptide-linked conjugates of Nedd8, ISG15 or SUMO-1 are not substrates for UL36^USP”; in data set [7] it was “Isopeptide-linked conjugates of Nedd8, ISG15 or SUMO-1 are not substrates for UL36^USP”. The “polyubiquitin chain depolymerization, anti-His immunoblot” value in data set [5] is listed as “we observed deubiquitination of Lys^48-linked polyUb only”; in data set [6], “The failure of UL36^USP to cleave Lys^63-linked polyUb”. Further, in data set [1], the “Ub-AMC cleavage, turnover number” value is about 6 min⁻¹.
